Laboratory results: publication PMC6345808, “Molecular structure and function of myelin protein P0 in membrane stacking” (Scientific Reports, 2019)

Assays:
[1] = biological target: the molecule itself; assay: SEC-MALS; full-length P0 in 0.1% DPC micelles, Superdex 200, 250 mM sodium phosphate pH 8.0, 1 mM EDTA; protein conjugate analysis
[2] = biological target: the molecule itself; assay: SEC-MALS; full-length P0 in 0.1% LDAO micelles, Superdex 200, 250 mM sodium phosphate pH 8.0, 1 mM EDTA; protein conjugate analysis

B1: full-length myelin protein zero (P0) from bovine peripheral myelin (natural protein, UniProt P10522 29-248, looked up)
chain: AIVVYTDKEVHGAVGSQVTLYCSFWSSEWVSDDLSFTWRYQPEGGRDAISIFHYAKGQPYIDEVGTFKERIQWVGDPHRKDGSIVIHNLDYGDNGTFTCDVKNPPDIVGKTSQVTLYVFEKVPTRYGVVLGAVIGGVLGVVLLALLLFYLIRYCWLRRQAALQRRLSAMEKGKLHKTAKDASKRGRQTPVLYAMLDHSRSTKAASEKKTKGLGESRKDKK
modifications: N-linked glycan structures belonging to hybrid types
notes: myelin protein zero (P0, MPZ), bovine, native protein from the raft fraction of peripheral myelin; Oligomeric state depended on detergent: tetramer in DPC, dimer in LDAO; also called MPZ; full-length P0
stoichiometry N [1]: 4 | stoichiometry N [2]: 2
